These results are taken from patent US20260193323.

The subject of data set [1] is T1, LEKTI Domain 6 (ct His6 tag).
T1 sequence: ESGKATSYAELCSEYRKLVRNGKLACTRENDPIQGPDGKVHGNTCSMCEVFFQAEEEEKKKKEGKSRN

In data set [2] the test system is T2, recombinantly produced LEKTI Domain 6.
T2 sequence: T1 sequence

Take trypsin: in data set [1], the “trypsin activity (L-BAPNA substrate, 405 nm)” value is listed as “recombinantly produced LEKTI Domain 6 (ct His6 tag) inhibits trypsin in vitro compared to LEKTI domains 10-15”. Moreover, the “Trypsin activity (rate of change in the absorbance at 405 nm, L-BAPNA cleavage, per minute)” value in data set [2] was “LEKTI Domain 6 inhibited trypsin activity in vitro”.
